According to patent US8440629B2, “Cyclic receptor-associated protein (RAP) peptides” (Raptor Pharmaceuticals Inc., priority 2007, dated 2013):
Where a chain is given by its changes, count along the chain named. In names and notes the source's numbering stands.

B1: RAP d3: third domain of human RAP, amino acids 201-319 of mature RAP, bacterially expressed with hexahistidine and S-peptide tags (SEQ ID NO: 92) (protein, listed as Homo sapiens)
chain: LDRLRRVSHQGYSTEAEFEEPRVIDLWDLEQSANLTDKELEAFREELKHFEAKIEKHNHYQKQLEIAHEKLRHAESVGDGERVSRSREKHALLEGRTKELGYTVKKHLQDLSGRISRAR
modifications: hexahistidine and S-peptide tags
B2: MegaRAP1 d3: d3 of RAP variant selected on LRP2 CR89: S213T, E217K, H249Y, E251K, K256A, K270E (SEQ ID NO: 93) (protein, listed as Homo sapiens)
chain: B1 chain with E51K, K56A, K70D

How the values were obtained:
[1] = target: T1, LRP2 CR89 Y1042W R1088D (WVWD) (Homo sapiens, UniProt P98164, R1089D/Y1043W); assay: Solid phase binding assay, LRP2 CR89 mutant
T1 construct: two CR pairs from LRP2 (CR89, CR3435); made in house; host or cells: E. coli BL21(DE3) CodonPlus-RIPL, pET30(+)a
T1 sequence (P98164 1025-1102 Y1043W/R1089D): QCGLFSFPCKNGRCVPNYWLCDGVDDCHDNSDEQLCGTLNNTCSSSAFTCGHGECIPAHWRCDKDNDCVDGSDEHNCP
Excerpt: (§1) Each amplified fragment was sequentially digested with BamHI and HindIII and then ligated into similarly digested pET30(+)a. The resulting plasmids encode proteins consisting of N-terminal hexahistidine and S-peptides fused to the CR fragment. Ligation reactions were transformed into XL-Blue MRF′ (Stratagene) by electroporation and plasmids isolated from single colonies. Three mutations, […], V1047D and R1088D, were introduced into the LRP2 CR89 expression plasmid both singly and in combination using Stratagene QuikChange II XL reagents and the primers: […]
(§2) Purified, refolded CR protein (1 μg) was bound to Nunc Maxisorp™ 96-well plates in TBS pH 8 supplemented with 5 mM CaCl2 (TBSC) overnight at 4° C. Wells were washed with TBSC and then blocked with TBSC containing 2% bovine serum albumin (BSA). RAP ligands were then incubated with the immobilized receptor at a range of concentrations for 2 hours in the above blocking buffer supplemented with 0.05% Tween-20 at room temperature. Control wells contained no added ligand. As an additional control, to determine whether the absence of calcium affected binding, 10 mM EGTA was included in the incubation medium for some samples. Wells were washed with TBSTC and bound ligands detected with polyclonal anti-RAP (BP41/42, 1:1,000, BioMarin). Excess primary antibody was removed and wells washed before incubation with the secondary antibody, HRP-conjugated goat anti rabbit IgG (Bio-Rad). After washing, TMB substrate solutions (Bio-Rad) were added to detect HRP. Color development was stopped with 1N HCl. Absorption at 450 nm was measured with a microplate spectrophotometer (Molecular Devices). Data were plotted and Kd values derived by non-linear regression with the assumption of single-site binding (GraphPad Prism).
(§3) One premise of this work was that amino acids at A, C, A′ and C′ within the calcium-binding loops of a CR pair were key determinants of binding affinity for RAP and would be similarly important for binding of RAP variants. To test this idea, mutant LRP2 CR89 were prepared in which the native, non-canonical residues at these positions were sequentially substituted with the non-native, canonical residues. As defined above, the A, C, A′, C′ string for LRP2 CR89 is YVWR. Mutants included LRP2 CR89 Y1042W (WVWR), LRP2 CR89 V1047D (YDWR), LRP2 CR89 R1088D (YVWD), LRP2 CR89 V1047D R1088D (YDWD), LRP2 CR89 Y1042W V1047D R1088D (WDWD), LRP2 CR89 Y1042W V1047D (WDWR), LRP2 CR89 Y1042W R1088D (WVWD). Binding to both RAP d3 and MegaRAP1 d3 were measured for each LRP2 CR89 mutant by solid-phase assay. Only the YVWD mutant retained significant binding to MegaRAP1 d3, with an approximate 2-fold loss of affinity relative to LRP2 CR89 (FIG. 6 and Table 3). […] The A′ position in LRP2 CR89 is a tryptophan, the canonical residue for wild-type RAP d3 binding, and was not mutated in our studies.

[2] = target: T2, LRP2 CR89 Y1042W V1047D R1088D (WDWD) (Homo sapiens, UniProt P98164, R1089D/V1048D/Y1043W); assay: Solid phase binding assay, LRP2 CR89 mutant
T2 construct: two CR pairs from LRP2 (CR89, CR3435); made in house; host or cells: E. coli BL21(DE3) CodonPlus-RIPL, pET30(+)a
T2 sequence (P98164 1022-1105 Y1043W/V1048D/R1089D): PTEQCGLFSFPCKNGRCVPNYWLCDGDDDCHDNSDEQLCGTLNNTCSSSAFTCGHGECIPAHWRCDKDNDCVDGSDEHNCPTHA
Excerpt: as §1, §2, §3

LRP6 CR1-3 = target: T3, LRP6 CR1-3 (Homo sapiens, UniProt O75581); assay: Solid phase binding assay; conditions: highest ligand concentrations tested
T3 construct: made in house; host or cells: E. coli BL21(DE3) CodonPlus-RIPL, pET30(+)a
T3 sequence (O75581 1247-1363): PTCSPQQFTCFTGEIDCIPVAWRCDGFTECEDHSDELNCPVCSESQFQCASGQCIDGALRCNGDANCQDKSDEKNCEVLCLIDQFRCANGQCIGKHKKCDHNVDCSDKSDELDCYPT

Row | Molecule | binding (in words) [1] | binding (in words) [2] | binding relative to that for LRP1 CR3-5 (LRP6 CR1-3)
1 | B1 | small increase in binding | small increase in binding | less than 5%
2 | B2 | failed to bind measurably | failed to bind measurably | 
